Experimental data reported in the supplement of paper PMC12764529.
± gives the half width of the 95% confidence interval.

Columns and labels:
[1] = folding stability dG unfold from chymotrypsin proteolysis; higher = more stable
Method in brief: (§1)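 Only designs with AlphaFold2 dimer inter-PAE above 15 were retained; each was a mini-protein under 80 residues with no cysteine, in a PA-tagged cDNA display construct. After digestion with trypsin and chymotrypsin and sequencing, K50 was inferred by Bayesian fitting of counts, and unfolding free energy was derived per protease or combined against a sequence-predicted unfolded-state K50 and a shared folded-state K50.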

[2] = folding stability dG unfold (combined trypsin and chymotrypsin); higher = more stable
Method in brief: as §1

[3] = folding stability dG unfold from trypsin proteolysis; higher = more stable
Method in brief: as §1

Sequence	folding stability dG unfold [1] [kcal/mol]	folding stability dG unfold [2] [kcal/mol]	folding stability dG unfold [3] [kcal/mol]
SAELIEALKKAGYRIKIEVEVTEVRVVRNEDGELKVEAKIKVKIEIEPLPPPPPPLSLEDLLDKNGKLVSAG [r14_569_TrROS_Hall]	3.3 ± 0.13	2.95 ± 0.56	3.26 ± 0.41
SAENGKWVEVELPIEIWMGNDQLDNFIEEARDIARKHGFEITDIPIKYEPSPDGYRRATIPVKITVPLPSAG [r14_109_TrROS]	1.06 ± 0.088	1.13 ± 0.14	1.06 ± 0.04
SAEPKRYYALVVKRPDGKWLVFYFEDVEEGRERFEEFLRKEFPEDFEVELFEVEPSEAESIEKLLEALGSAG [r14_900_TrMRF]	4.8 ± 0.091	4.61 ± 0.17	3.07 ± 0.14
SAEVETVTLELELPEDGYRVTITVTYNKETGEVTVEIRIINPNGEEKTITIKVKSLEEALKKLEFKLLPSAG [r14_749_TrROS_Hall]	2.45 ± 0.054	2.36 ± 0.13	2.13 ± 0.056
SAEVIEKTLTETVIGDTVVTPSVVEFPDGSVVEKVTTVSPDGTVTVTTYYFPPDGVRTFLSTTTVPLDLSAG [r14_680_JUSTAS]	1.16 ± 0.07	0.939 ± 0.07	0.585 ± 0.03
SAFKIERDPGNGQRKIKIEIPIIFPMGPEMRNMFKNMIKQWLAKHNPNVDIEIDIIPVKSPEQALEQIGSAG [r14_406_TrROS]	2.61 ± 0.3	1.98 ± 0.47	1.48 ± 0.15
SAFRFPPGQTIMIKIEWRNPGNGKKRKWSIPIRVDPDKGRVITLDMLKSFLRKWGFNPEDVKIEDITVMSAG [r14_93_TrROS]	1.31 ± 0.069	1.81 ± 0.041	2.145 ± 0.013
SAGAGKTPDGKEYIIPFTFKNENGETTPEEIEEKIKEFTAKHPEVKIKEIKAIKEGDSVKVLVVVEKPASAG [r5_688_TrMRF]	2.77 ± 0.053	2.74 ± 0.28	2.61 ± 0.12
SAGAHTVSVHYVEPGSKKLSSVETSEITLEPGEELPLDEVAARFPSENYEVTAQEEPDAITITIYVYRGSAG [r5_269_JUSTAS]	0.522 ± 0.27	0.547 ± 0.087	0.303 ± 0.062
SAGAIERILEWLKDQPPGDEVPIPIRLPNGWYIKINIEYNPEENKPKIEVEYYDPDDGKPRQEQKFTIPSAG [r5_35_TrROS]	0.899 ± 0.17	1.31 ± 0.25	1.59 ± 0.077
SAGAKAEPGPSGRLRIYLPDEPIELDVTEDGTVTLTFPNGEKVEFPVEKEKAALVLAELNALGAVVVPQSAG [r5_753_TrMRF]	1.09 ± 0.055	0.712 ± 0.084	-0.367 ± 0.19
SAGAMQTVTLPTPDGRTVTLRHPGISVSVDPEKRTVTISVPSLGKVYTLTFAPDGTVAELSEEPIPELESAG [r5_342_JUSTAS]	3.231 ± 0.025	2.82 ± 0.11	1.53 ± 0.03
SAGAPGEVTVTVVRRPRVETEEERRRRRAPPPPVVTLTLKVPPGWVVRRVAFNADGEIVSVELYRRDDLSAG [r5_750_TrROS_Hall]	3.03 ± 0.031	2.54 ± 0.06	1.38 ± 0.029
SAGAPSTREFEILELVPLPPGTTAEELRATLEREVELPDDSVARIRVRAVFLSPGPAFALVLYRVEVRESAG [r5_939_TrMRF]	3.314 ± 0.015	3.22 ± 0.12	3.15 ± 0.11
SAGASPGVRLTERSEEVIEVEPGEKEKLKEEIKKSEKKYPGGLTEKVEYEVDPNSNKVTITITTTTGLSAGG [r19_45_JUSTAS]	0.664 ± 0.084	0.383 ± 0.33	-0.351 ± 0.23
SAGDADEDPVLVVFVRTEERPLVVVRRVEPDEDPEEVAKELAAEIREKLGPDVEVFVEMVRREDAEKLFSAG [r5_583_TrMRF]	2.44 ± 0.039	2.42 ± 0.11	2.27 ± 0.052
SAGDALKDIFPGLEIEPHEKPVKVPPGKPVEFAFIIRMPDGEIMIFDMHFNPGGEVRVRVLTIKLPEKSAGG [r19_125_TrROS]	4.81 ± 0.14	3.96 ± 0.27	2.88 ± 0.16
SAGDDLKIKKVEIQINPEHGYISVTFRIDGYEVQIMYDVDPKNGPITMDIYYPGKPIGEFTIPLNDIKISAG [r5_415_TrROS]	3.01 ± 0.05	2.68 ± 0.1	1.78 ± 0.083
SAGDEALLERIRARAEAEAKAAGPDPTPLDYRVEVEPVEIDEETGTVKVRVTITAPDREVEREVTVPLVSAG [r5_53_JUSTAS]	-0.113 ± 0.096	0.0838 ± 0.088	0.315 ± 0.051
SAGDKKTIELWFMFKTPEEARHEADSIARRLAEEGLTIKVELKDIEPMPDPDGEKYYMFEFKVTIQLPNSAG [r5_158_TrROS]	3.28 ± 0.12	3.06 ± 0.14	2.55 ± 0.062
SAGDLAEYIAETLQDHFPNMEVEVEIDGVEDGYIVIDITIYFRDMKDNENKPRWVPWEIVIPPGEPLPSAGG [r19_8_TrROS]	4.09 ± 0.051	3.38 ± 0.19	2.36 ± 0.14

Sequence	folding stability dG unfold [1] [kcal/mol]	folding stability dG unfold [2] [kcal/mol]	folding stability dG unfold [3] [kcal/mol]
SAGDMIKIPFNFKDPNGAKPKELEVMISPDPGVITAMFKYKHNNEPKYYMISIPIDPGNGKIEIEIQPMSAG [r5_136_TrROS]	1.65 ± 0.17	1.46 ± 0.12	1.2 ± 0.058
SAGDNLKIDVEVEPAKVILGEFDENGKLIKPIEKDVLIVKVTVTFSNGKKLEIRATFFDGKLISVSSGSAGG [r19_44_TrMRF]	5.26 ± 0.086	5.07 ± 0.19	3.56 ± 0.16
SAGDNNKKPKYVYIPITINVPLPPGQTHEEAVDEVRLIMEELFPPGFKISEVKVHPEYNTVTVWIQIRSAGG [r19_81_TrROS]	2.16 ± 0.044	2.22 ± 0.18	2.11 ± 0.089
SAGDPDRPVVVVIHYVDPETGEPRVEVFPADRIERIEVSPDGVLRIHLPAYGLEIDFPLDVVDHVDIASAGG [r19_416_TrMRF]	2.17 ± 0.044	2.12 ± 0.027	1.99 ± 0.064
SAGDPEVVAEAEFPFTFPLAKIEVRISVYPDGTARIEVTITFPAPGKGNPKKPIKLRFRFEIKLAPDALSAG [r5_224_TrMRF]	5.3 ± 0.15	5.12 ± 0.36	3.8 ± 0.3
SAGDVKIDIHYDEDGYIRVTVPYKSPHEAREEADELARWLAKQFGPKNIDINVEPHPNGMLVIRIPIKKSAG [r5_772_TrROS]	3.05 ± 0.082	2.62 ± 0.12	2.17 ± 0.099
SAGDVPVPATFEVELPGDGTARVTVVRHPGAAPGGFDTVRVEFRPGPTSSVTLTYRVPPGSAPVPFLGGSAG [r5_47_TrMRF]	1.33 ± 0.31	0.965 ± 0.19	0.535 ± 0.16
SAGEATVEKLEDGYVVVFKDGSVAFLPAVPPAVPVVEIPFKDPEEGRRAVEELGADVLDIGDDSIVVAGSAG [r5_328_TrMRF]	0.346 ± 0.033	-0.01 ± 0.1	-1.19 ± 0.16
SAGEEIEELAKKLADELREKYPELEVKVEVVEVTVKTTVVKDKETGKLYTKTEITVKLKVEVVPKEELSAGG [r19_293_TrROS_Hall]	3.81 ± 0.21	3.08 ± 0.31	1.99 ± 0.23
SAGEEIERLLKEIEEAVRKAYPDKVVKVDLVKVELRPVLVVDPGTPRIEERTEIFLEVKVTVTHPDELSAGG [r19_293_TrMRF]	2.77 ± 0.08	2.63 ± 0.087	2.22 ± 0.098
SAGEELIKKLAEELNLEVEIVSVEVDEETPTITVEVRVRNKDGEELTVRITITYDKETDEVHIEVEVLPSAG [r5_929_TrROS_Hall]	3.99 ± 0.26	4.08 ± 0.2	3.91 ± 0.14
SAGEEVYLITVRIIDPETNEVKEITKLIKNKTEDEILEELRKLLEELGIELPEGAKVEITITKIKPPPESAG [r5_230_TrROS_Hall]	4.07 ± 0.44	4.26 ± 0.82	3.53 ± 0.52
SAGEFKIDILPGDNVARITSPEGSFLAPFTATFTFDVPDIADPNKIKPKPVVFNLVIEMKLDDFFDLLSSAG [r5_234_TrMRF]	4.17 ± 0.17	3.36 ± 0.15	2.49 ± 0.1
SAGEIAEKLGFKVEDVSIQKEDGTYRIVVRFPMDDRPVVIMGDIKVEEKNGKRKIEIDIDIMPLPPDDPSAG [r5_516_TrROS]	1.57 ± 0.054	1.7 ± 0.086	1.89 ± 0.03
SAGEKEYVNLPLVVKLPPGVPASLILDAAVKHGAKEVTIVEEPTPDGGMVLHINLVLPKEALPKLLESLSAG [r5_376_TrMRF]	4.61 ± 0.17	4.79 ± 0.3	4.39 ± 0.21
SAGEKFEPVEEKELTLKITLKDKDGNEKEVEIKVKVEVVKNPDGTLTVRAEITFEDGTKIELELEIKLPSAG [r5_57_TrROS_Hall]	3.19 ± 0.23	3.11 ± 0.33	3.27 ± 0.16
SAGEKKKVVIVVHIHIEAESEEDREKALEEARKLAEELARELKEKLGLPEDVKEVVVIVHIHPRSEEEKSAG [r5_436_TrROS_Hall]	2.42 ± 0.083	2.25 ± 0.12	2.01 ± 0.086
SAGEKTVKIKLPNTKTITVKVKKNEKKILYLPNGEKILITDVKKGKVSLKKGITYVKDKNGKWYPLKYKSAG [r5_417_TrMRF]	1.86 ± 0.079	1.37 ± 0.1	0.332 ± 0.15
SAGELELELELEFELEDGYRVEVRLRLRVRPDGSVRMELEVRIEPLPPPPPVRVVVVREDDPEALRALSAGG [r19_12_TrROS_Hall]	4.49 ± 0.19	3.6 ± 0.61	2.73 ± 0.1
SAGELTAEEIAERLRKLLEELGIEEVEVEVEEVEVEEEEEPVEEEEEEELSEEERERLRRERLEEEGLLSAG [r5_9_TrROS_Hall]	2.1 ± 0.037	1.92 ± 0.12	1.59 ± 0.073
SAGEPDKPFTLTLKLLLPQSEDGTPLTPEEAEELAKEISTELGVEVEEIKITSNPEGNFVEIEVKLRGSAGG [r19_322_TrMRF]	2.568 ± 0.015	2.4 ± 0.059	2.02 ± 0.031
